# Measurements from paper PMC8998802 (2019).
# T1: CaV1.1 AID peptide AID (UniProt Q13698, IPPQ present)
# T1 chain: QQLDEDLRGYMSWITQGE
# T2: CaV1.1 AID peptide AID (UniProt Q13698)
# T2 chain: QQLDEDLRGYMSWITQGE
# T3: CaV2.1 AID peptide AID (UniProt O00555, IPPQ present)
# T3 chain: QQIERELNGYMEWISKAE
# T4: CaV2.1 AID peptide AID (UniProt O00555)
# T4 chain: QQIERELNGYMEWISKAE
# T5: CaV2.2 AID peptide AID (UniProt Q00975, IPPQ present)
# T5 chain: QQIERELNGYLEWIFKAE
# T6: CaV2.2 AID peptide AID (UniProt Q00975)
# T6 chain: QQIERELNGYLEWIFKAE
# Key:
# Test in all cases: microscale thermophoresis
# CaV1.1 AID peptide AID [1] = biological target: T1, CaV1.1 AID peptide AID
# CaV1.1 AID peptide AID [2] = biological target: T2, CaV1.1 AID peptide AID
# CaV2.1 AID peptide AID [3] = biological target: T3, CaV2.1 AID peptide AID
# CaV2.1 AID peptide AID [4] = biological target: T4, CaV2.1 AID peptide AID
# CaV2.2 AID peptide AID [5] = biological target: T5, CaV2.2 AID peptide AID
# CaV2.2 AID peptide AID [6] = biological target: T6, CaV2.2 AID peptide AID
binder,measurement,setting,value
CaVβ2 (protein) not shown,Kd,CaV1.1 AID peptide AID [1],51 nM
same,Kd,CaV1.1 AID peptide AID [2],24 nM
same,Kd,CaV2.1 AID peptide AID [3],93 nM
same,Kd,CaV2.1 AID peptide AID [4],18.3 nM
same,Kd,CaV2.2 AID peptide AID [5],208 nM
same,Kd,CaV2.2 AID peptide AID [6],12 nM
